Experimental data from publication doi:10.1101/2022.09.26.509586.

Target: piggyBac transposase residues 1-558 (PB1-558) (cabbage looper moth)
Assay: AUC

piggyBac transposase residues 1-558 (PB1-558) (domain or fragment)
stoichiometry N: 2
